This assay addresses T1, proGDF11 (Mus musculus, UniProt Q9Z1W4).
T1 construct: The text calls it recombinant mouse GDF11 / rGDF11, and the sheet labels it '10x proGDF11'; also called recombinant mouse GDF11; rGDF11 (murine)
T1 sequence (proprotein, looked up): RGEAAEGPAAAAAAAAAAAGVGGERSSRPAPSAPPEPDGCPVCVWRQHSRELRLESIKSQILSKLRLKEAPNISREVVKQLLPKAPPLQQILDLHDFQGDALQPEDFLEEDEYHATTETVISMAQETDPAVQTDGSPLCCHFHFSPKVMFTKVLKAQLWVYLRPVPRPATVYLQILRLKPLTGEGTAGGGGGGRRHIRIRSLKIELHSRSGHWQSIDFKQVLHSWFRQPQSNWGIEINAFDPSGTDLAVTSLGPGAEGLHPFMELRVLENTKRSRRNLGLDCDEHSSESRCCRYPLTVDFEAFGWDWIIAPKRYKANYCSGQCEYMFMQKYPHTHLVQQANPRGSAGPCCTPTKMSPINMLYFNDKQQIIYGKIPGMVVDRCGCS
Briefly: recombinant protein absorption: Ab10 at 50 µg/mL pre-incubated overnight with 10-fold molar excess of recombinant mouse GDF11, then used as primary antibody for immunofluorescence on mouse tibialis anterior sections; read-out is retained tissue pro/latent GDF8 staining. How it is done: Tibialis anterior (TA) muscles were fixed in ice cold 4% paraformaldehyde (EMS), PBS for 30 min, incubated overnight in 10% sucrose, PBS at 4° C., then incubated overnight in 20% sucrose, PBS. Muscles were then mounted on cork with tragacanth (Sigma) and frozen in liquid nitrogen cooled isopentane (Sigma) for cryosectioning. 10 μm sections of TA muscle were permeabilized with 0.1% Triton-X 100 (Sigma), PBS for 20 minutes, washed once with 0.05% Triton-X 100, PBS (PBS/T), and then incubated in Mouse IgG blocking reagent (Vector Lab) diluted at 1 drop per 1.5 mL PBS/T for 1 h. Sections were washed once with PBS/T and then incubated in 10% Normal Goat Serum (Sigma), 1% Blocking powder (Perkin Elmer), PBS/T (NGB) for 30 minutes at room temperature. Primary antibodies (Rabbit anti-laminin, 1:5000, Abcam; Ab10, […]; HuNeg, 50 μg/mL,) were diluted in NGB and applied to sections overnight at 4° C. Sections were washed 3 times with PBS/T, and then incubated in secondary antibodies (Alexa Fluor 488 conjugated Goat anti-Rabbit, 1:1000, Invitrogen; Alexa Fluor 594 conjugated Goat anti-Human IgG FCY, 1:500, Jackson ImmunoResearch) diluted in NGB for 1 h. Sections were then incubated in 350 nM DAPI (Thermo), PBS/T for 5 minutes, washed twice with PBS/T, and then mounted with Vectashield (Vector Laboratories). […]

B1: anti-pro/latent GDF8 antibody, Ab10 (antibody, V domains shown)
VH: EVQLVQSGGGVVQSGRSLRLSCVASGFSFSNYGMHWVRQAPGKGLEWLAFIWYDGSNKWYADSVKGRFTISRDNSKNALYLQMNSLRAEDTAVYYCARDRYSSSWGGGFDYWGQGTVLTVSS
VL: NFMLTQPHSVSESPGRTVTIPCSGRGGSIASDSVQWYQQRPGSAPTTIIYEDNQRPSGVPDRFSGSVDSSSNSASLTISGLRTEDEADYYCQSYDASSLWVFGGKTKLTVLG
notes: The VL as printed runs into the start of the lambda constant region
Take B1: the binding result is recorded as “no binding”.

(Values after US20260035447A1 (SCHOLAR ROCK, published 2026).)
